Patent US7122636

Target: recombinant human IL-8, (ser-IL-8)72 (human, UniProt P10145 28-99)
Test: inhibition of 125I-IL-8 binding to neutrophils

B1: humanized 6G425 F(ab)-9 (humanized 6G4V11 Fab) (Fab, V domains shown)
VH: EVQLVQSGGGLVQPGGSLRLSCAASGYSFSSHYMHWVRQAPGKGLEWVGYIDPSNGETTYNQKFKGRFTLSRDNSKNTAYLQMNSLRAEDTAVYYCARGDYRYNGDWFFDVWGQGTLVTVSS
VL: DIQMTQSPSSLSASVGDRVTITCRSSQSLVHGIGNTYLHWYQQKPGKAPKLLIYKVSNRFSGVPSRFSGSGSGTDFTLTISSLQPEDFATYYCSQSTHVPLTFGQGTKVEIKR
IC50: 4.9 nM
